Reference: PMC11905138

Tests used:
Conditions in all cases: reference: Flag-PKM2 wild type; sites Y105
IQGAP1 [1] = biological target: IQGAP1 (UniProt P46940); assay: anti-Flag IP, LC-MS/MS
TSG101 = TSG101 (UniProt Q99816); assay: anti-Flag co-IP, TSG101 blot
IQGAP1 [2] = biological target: IQGAP1 (UniProt P46940); assay: anti-Flag co-IP, IQGAP1 blot

binding against the reference (IQGAP1 [1]): lost
binding against the reference (TSG101): lost
binding against the reference (IQGAP1 [2]): lost
Substance: PKM2 (pyruvate kinase M2) (from UniProt P14618) Flag-PKM2 Y105F
